This series relates to Escherichia coli TOP10. The experiment in a line: shrunken log2 fold change of peptide-encoding DNA abundance (4.5 h post-induction vs induction); higher = less antimicrobial activity (less host growth inhibition). As to conditions: time post-induction: 4.5 h; library: site-saturation at positions 5, 18, 19, 20.
For the sequence RRIRNRPPRLPRPRPRPKEPPRP, the “shrunken log2 fold change” value came out at 0.0169.

As to RRIRPRPPRLPRPRPRPHADPRP, the “shrunken log2 fold change” value was -0.161.

RRIRARPPRLPRPRPRPYVQPRP: the “shrunken log2 fold change” value is -0.471.

On to RRIRTRPPRLPRPRPRPKGLPRP, for which the “shrunken log2 fold change” value is -0.117.

In the case of RRIRNRPPRLPRPRPRPQREPRP, the “shrunken log2 fold change” value is -0.00141.

RRIRARPPRLPRPRPRPDLEPRP: the “shrunken log2 fold change” value worked out at 0.0744.

As for RRIRDRPPRLPRPRPRPLYDPRP, the “shrunken log2 fold change” value is -0.107.

RRIRIRPPRLPRPRPRPGCPPRP: the “shrunken log2 fold change” value was -0.304.

For RRIRHRPPRLPRPRPRPGGLPRP, the “shrunken log2 fold change” value turned out to be 0.117.

Regarding RRIRKRPPRLPRPRPRPWKYPRP, the “shrunken log2 fold change” value is -0.067.

With RRIRGRPPRLPRPRPRPAHLPRP, the “shrunken log2 fold change” value stood at 0.768.

Turning to RRIRFRPPRLPRPRPRPWKRPRP, the “shrunken log2 fold change” value was -0.0222.

In the case of RRIRGRPPRLPRPRPRPPPIPRP, the “shrunken log2 fold change” value turned out to be 1.16.

Consider RRIRSRPPRLPRPRPRPEAYPRP, for which the “shrunken log2 fold change” value was -0.141.

Consider RRIRIRPPRLPRPRPRPWNTPRP, for which the “shrunken log2 fold change” value is -0.256.

As to RRIRVRPPRLPRPRPRPYKSPRP, the “shrunken log2 fold change” value was -0.492.

Turning to RRIRYRPPRLPRPRPRPMLHPRP, the “shrunken log2 fold change” value was -0.404.

Take RRIRKRPPRLPRPRPRPSVLPRP: the “shrunken log2 fold change” value is 0.0575.

For RRIRLRPPRLPRPRPRPVNFPRP, the “shrunken log2 fold change” value is -0.13.

With RRIRWRPPRLPRPRPRPNYCPRP, the “shrunken log2 fold change” value was -0.113.

As for RRIRLRPPRLPRPRPRPKQLPRP, the “shrunken log2 fold change” value was -0.0685.

As for RRIRRRPPRLPRPRPRPEQIPRP, the “shrunken log2 fold change” value stood at 0.0197.

For RRIRFRPPRLPRPRPRPRAWPRP, the “shrunken log2 fold change” value came out at 0.409.

Consider RRIRRRPPRLPRPRPRPDMVPRP, for which the “shrunken log2 fold change” value stood at 0.206.

As to RRIRFRPPRLPRPRPRPVKPPRP, the “shrunken log2 fold change” value is -0.0579.

Turning to RRIRMRPPRLPRPRPRPWMAPRP, the “shrunken log2 fold change” value was -0.0347.

In the case of RRIRLRPPRLPRPRPRPLQAPRP, the “shrunken log2 fold change” value is 0.128.

Consider RRIRMRPPRLPRPRPRPNYAPRP, for which the “shrunken log2 fold change” value is -0.193.

In the case of RRIRVRPPRLPRPRPRPAAQPRP, the “shrunken log2 fold change” value is 0.433.

In the case of RRIRQRPPRLPRPRPRPRKGPRP, the “shrunken log2 fold change” value is 0.353.

Take RRIRARPPRLPRPRPRPQSMPRP: the “shrunken log2 fold change” value is -0.0226.

Take RRIRARPPRLPRPRPRPWCWPRP: the “shrunken log2 fold change” value was 0.583.

With RRIRYRPPRLPRPRPRPVWLPRP, the “shrunken log2 fold change” value is -0.0438.

On to RRIRCRPPRLPRPRPRPIAVPRP, for which the “shrunken log2 fold change” value was -0.0152.

On to RRIRDRPPRLPRPRPRPWPKPRP, for which the “shrunken log2 fold change” value is -0.149.

In the case of RRIRARPPRLPRPRPRPTAVPRP, the “shrunken log2 fold change” value was determined as 0.873.

RRIRHRPPRLPRPRPRPPKAPRP: the “shrunken log2 fold change” value worked out at 0.0427.

For RRIRYRPPRLPRPRPRPGSCPRP, the “shrunken log2 fold change” value is -0.308.

Consider RRIRNRPPRLPRPRPRPANEPRP, for which the “shrunken log2 fold change” value is -0.00326.

RRIRCRPPRLPRPRPRPGWIPRP: the “shrunken log2 fold change” value was 0.198.

RRIRGRPPRLPRPRPRPMKTPRP: the “shrunken log2 fold change” value was found to be 0.494.

RRIRHRPPRLPRPRPRPNVDPRP: the “shrunken log2 fold change” value was found to be 0.187.

Take RRIRMRPPRLPRPRPRPDWFPRP: the “shrunken log2 fold change” value turned out to be 0.235.

With RRIRTRPPRLPRPRPRPQLHPRP, the “shrunken log2 fold change” value was found to be 0.0211.

As to RRIRERPPRLPRPRPRPEFPPRP, the “shrunken log2 fold change” value is -0.00557.

Regarding RRIRPRPPRLPRPRPRPKYEPRP, the “shrunken log2 fold change” value is -0.203.

On to RRIRNRPPRLPRPRPRPMMNPRP, for which the “shrunken log2 fold change” value worked out at 0.274.

As for RRIRIRPPRLPRPRPRPKCVPRP, the “shrunken log2 fold change” value was -0.328.

Turning to RRIRTRPPRLPRPRPRPLPWPRP, the “shrunken log2 fold change” value came out at 0.147.

In the case of RRIRLRPPRLPRPRPRPPPRPRP, the “shrunken log2 fold change” value is 1.66.

With RRIRFRPPRLPRPRPRPCETPRP, the “shrunken log2 fold change” value is -0.00947.

As for RRIRMRPPRLPRPRPRPFKKPRP, the “shrunken log2 fold change” value is 0.0258.

Take RRIRARPPRLPRPRPRPFYWPRP: the “shrunken log2 fold change” value is -0.24.

Take RRIRNRPPRLPRPRPRPLYWPRP: the “shrunken log2 fold change” value is -0.437.

Consider RRIRYRPPRLPRPRPRPNINPRP, for which the “shrunken log2 fold change” value was -1.37.

Regarding RRIRHRPPRLPRPRPRPYYNPRP, the “shrunken log2 fold change” value was -1.28.

Turning to RRIRWRPPRLPRPRPRPRVMPRP, the “shrunken log2 fold change” value was 0.275.

For RRIRERPPRLPRPRPRPKWDPRP, the “shrunken log2 fold change” value came to 0.953.

RRIRPRPPRLPRPRPRPIDCPRP: the “shrunken log2 fold change” value is -0.0101.

Take RRIRSRPPRLPRPRPRPVNSPRP: the “shrunken log2 fold change” value was -0.365.

For the sequence RRIRQRPPRLPRPRPRPMREPRP, the “shrunken log2 fold change” value turned out to be 0.0211.

Take RRIRRRPPRLPRPRPRPPKYPRP: the “shrunken log2 fold change” value is -0.14.

RRIRERPPRLPRPRPRPNAVPRP: the “shrunken log2 fold change” value is -0.407.

On to RRIRTRPPRLPRPRPRPDYHPRP, for which the “shrunken log2 fold change” value is -0.699.

On to RRIRNRPPRLPRPRPRPSRLPRP, for which the “shrunken log2 fold change” value came to 0.14.

As for RRIRVRPPRLPRPRPRPRFSPRP, the “shrunken log2 fold change” value was -0.17.

For RRIRFRPPRLPRPRPRPYLQPRP, the “shrunken log2 fold change” value was -0.527.

As for RRIRGRPPRLPRPRPRPKNFPRP, the “shrunken log2 fold change” value worked out at 0.0583.

On to RRIRKRPPRLPRPRPRPSNFPRP, for which the “shrunken log2 fold change” value is -0.198.

Regarding RRIRTRPPRLPRPRPRPHVPPRP, the “shrunken log2 fold change” value is -0.374.

Regarding RRIRPRPPRLPRPRPRPPRTPRP, the “shrunken log2 fold change” value amounted to 0.609.

For the sequence RRIRHRPPRLPRPRPRPWYAPRP, the “shrunken log2 fold change” value is -0.41.

On to RRIRARPPRLPRPRPRPHSNPRP, for which the “shrunken log2 fold change” value is -0.251.

RRIRWRPPRLPRPRPRPLLFPRP: the “shrunken log2 fold change” value was -0.0366.

As for RRIRVRPPRLPRPRPRPDSIPRP, the “shrunken log2 fold change” value is -0.149.

With RRIRQRPPRLPRPRPRPDWYPRP, the “shrunken log2 fold change” value was -0.32.

As for RRIRDRPPRLPRPRPRPQHAPRP, the “shrunken log2 fold change” value amounted to 0.044.

With RRIRCRPPRLPRPRPRPTCNPRP, the “shrunken log2 fold change” value was -0.265.

Consider RRIRNRPPRLPRPRPRPHPSPRP, for which the “shrunken log2 fold change” value is -0.25.

With RRIRARPPRLPRPRPRPMLHPRP, the “shrunken log2 fold change” value was found to be 0.206.

In the case of RRIRNRPPRLPRPRPRPIKLPRP, the “shrunken log2 fold change” value is -0.0869.

As to RRIRNRPPRLPRPRPRPVTGPRP, the “shrunken log2 fold change” value is -0.362.

In the case of RRIRKRPPRLPRPRPRPYCGPRP, the “shrunken log2 fold change” value was 0.0176.

Regarding RRIRYRPPRLPRPRPRPSKLPRP, the “shrunken log2 fold change” value is -0.917.

For RRIRVRPPRLPRPRPRPHFGPRP, the “shrunken log2 fold change” value is -0.0294.

Take RRIRERPPRLPRPRPRPQVKPRP: the “shrunken log2 fold change” value was -0.2.

As to RRIRSRPPRLPRPRPRPPLLPRP, the “shrunken log2 fold change” value stood at 0.0398.

As for RRIRGRPPRLPRPRPRPFALPRP, the “shrunken log2 fold change” value stood at 0.278.

Regarding RRIRPRPPRLPRPRPRPSEQPRP, the “shrunken log2 fold change” value is -0.233.

Regarding RRIRFRPPRLPRPRPRPKKWPRP, the “shrunken log2 fold change” value was determined as 0.187.

RRIRSRPPRLPRPRPRPKHYPRP: the “shrunken log2 fold change” value is -0.233.

For RRIRHRPPRLPRPRPRPSYWPRP, the “shrunken log2 fold change” value stood at 0.0148.

As for RRIRNRPPRLPRPRPRPRGPPRP, the “shrunken log2 fold change” value came to 0.893.

As for RRIRIRPPRLPRPRPRPERPPRP, the “shrunken log2 fold change” value was 0.285.

Regarding RRIRCRPPRLPRPRPRPDEFPRP, the “shrunken log2 fold change” value was -0.169.

Take RRIRARPPRLPRPRPRPLTNPRP: the “shrunken log2 fold change” value worked out at 0.303.

In the case of RRIRDRPPRLPRPRPRPCWPPRP, the “shrunken log2 fold change” value stood at 0.073.

RRIRVRPPRLPRPRPRPSNTPRP: the “shrunken log2 fold change” value is -0.417.

Turning to RRIRDRPPRLPRPRPRPCQYPRP, the “shrunken log2 fold change” value was -0.0971.

Turning to RRIRGRPPRLPRPRPRPFAKPRP, the “shrunken log2 fold change” value came out at 0.479.

As for RRIRFRPPRLPRPRPRPVREPRP, the “shrunken log2 fold change” value was 0.269.

For RRIRCRPPRLPRPRPRPVWFPRP, the “shrunken log2 fold change” value was 0.029.

RRIRIRPPRLPRPRPRPIVMPRP: the “shrunken log2 fold change” value was -0.0726.

With RRIRCRPPRLPRPRPRPFNEPRP, the “shrunken log2 fold change” value was -0.799.

Regarding RRIRNRPPRLPRPRPRPVSKPRP, the “shrunken log2 fold change” value was determined as 0.124.

For RRIRWRPPRLPRPRPRPVCIPRP, the “shrunken log2 fold change” value is 0.12.

In the case of RRIRPRPPRLPRPRPRPGEQPRP, the “shrunken log2 fold change” value is 1.29.

On to RRIRPRPPRLPRPRPRPRFEPRP, for which the “shrunken log2 fold change” value amounted to 0.0793.

For RRIRARPPRLPRPRPRPYTMPRP, the “shrunken log2 fold change” value is -0.301.

In the case of RRIRPRPPRLPRPRPRPNFGPRP, the “shrunken log2 fold change” value is 0.26.

For RRIRFRPPRLPRPRPRPYHAPRP, the “shrunken log2 fold change” value was -0.0961.

Regarding RRIRCRPPRLPRPRPRPGWFPRP, the “shrunken log2 fold change” value came to 0.0546.

Regarding RRIRMRPPRLPRPRPRPLIAPRP, the “shrunken log2 fold change” value came to 0.34.

Turning to RRIRHRPPRLPRPRPRPGENPRP, the “shrunken log2 fold change” value was -0.00146.

Consider RRIRCRPPRLPRPRPRPNRRPRP, for which the “shrunken log2 fold change” value is -0.0599.

Regarding RRIRSRPPRLPRPRPRPGECPRP, the “shrunken log2 fold change” value was -0.181.

Regarding RRIRMRPPRLPRPRPRPGLLPRP, the “shrunken log2 fold change” value was determined as 0.251.

For the sequence RRIRFRPPRLPRPRPRPDMCPRP, the “shrunken log2 fold change” value was found to be 0.124.

For RRIRPRPPRLPRPRPRPFANPRP, the “shrunken log2 fold change” value is -0.0686.

In the case of RRIRRRPPRLPRPRPRPEIMPRP, the “shrunken log2 fold change” value amounted to 0.209.

As to RRIRKRPPRLPRPRPRPQWHPRP, the “shrunken log2 fold change” value came to 0.104.

On to RRIRDRPPRLPRPRPRPLCIPRP, for which the “shrunken log2 fold change” value worked out at 0.162.

As for RRIRGRPPRLPRPRPRPMKYPRP, the “shrunken log2 fold change” value worked out at 0.0733.

As to RRIRRRPPRLPRPRPRPQMKPRP, the “shrunken log2 fold change” value was -0.0643.

Regarding RRIRGRPPRLPRPRPRPECAPRP, the “shrunken log2 fold change” value worked out at 2.14.
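Also: peptides expressed intracellularly from a pBAD plasmid library in pooled LB shake-flask culture, induced with 0.3% L-arabinose, DNA abundance read by NGS, three biological replicates, DESeq2 with apeglm shrinkage.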
